The values below come from article PMC3909270, “The basic keratin 10-binding domain of the virulence-associated pneumococcal serine-rich protein PsrP adopts a novel MSCRAMM fold” (Open Biology, 2014).

T1: full-length keratin-10 (KRT10-FL) (human, UniProt P13645 1-584)
T1 construct: Keratin-10 (KRT10), residues 1-584, Uniprot ID P13645; also called KRT10-full-length; full-length KRT10; source: expressed from pET21d, purified as inclusion bodies, anion exchange in 6 M urea, dialysed against urea-free buffer
T1 sequence (looked up): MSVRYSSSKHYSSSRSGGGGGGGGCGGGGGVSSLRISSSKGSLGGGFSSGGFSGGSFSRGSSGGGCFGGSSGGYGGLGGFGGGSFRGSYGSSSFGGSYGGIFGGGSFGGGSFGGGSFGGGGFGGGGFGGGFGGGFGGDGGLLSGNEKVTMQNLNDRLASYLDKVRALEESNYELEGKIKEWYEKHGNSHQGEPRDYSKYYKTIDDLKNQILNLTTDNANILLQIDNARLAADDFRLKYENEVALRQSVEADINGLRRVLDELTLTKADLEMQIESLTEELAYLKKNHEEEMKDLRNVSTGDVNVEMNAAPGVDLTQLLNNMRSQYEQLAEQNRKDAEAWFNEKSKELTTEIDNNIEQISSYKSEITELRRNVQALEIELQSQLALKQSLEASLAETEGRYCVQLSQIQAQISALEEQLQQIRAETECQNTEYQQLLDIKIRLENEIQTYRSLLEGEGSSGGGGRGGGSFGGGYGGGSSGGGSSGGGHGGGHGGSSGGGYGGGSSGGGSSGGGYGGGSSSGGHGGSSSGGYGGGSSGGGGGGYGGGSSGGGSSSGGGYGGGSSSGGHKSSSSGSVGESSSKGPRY

T2: KRT10 rod domain (KRT10-ROD) (human, UniProt P13645 137-448, M150L)
T2 construct: Keratin-10 (KRT10), rod domain, residues 137-448, Uniprot ID P13645; M150L introduced to prevent second translation initiation; source: expressed from pET21d, purified as inclusion bodies, anion exchange in 6 M urea, dialysed against urea-free buffer
T2 sequence: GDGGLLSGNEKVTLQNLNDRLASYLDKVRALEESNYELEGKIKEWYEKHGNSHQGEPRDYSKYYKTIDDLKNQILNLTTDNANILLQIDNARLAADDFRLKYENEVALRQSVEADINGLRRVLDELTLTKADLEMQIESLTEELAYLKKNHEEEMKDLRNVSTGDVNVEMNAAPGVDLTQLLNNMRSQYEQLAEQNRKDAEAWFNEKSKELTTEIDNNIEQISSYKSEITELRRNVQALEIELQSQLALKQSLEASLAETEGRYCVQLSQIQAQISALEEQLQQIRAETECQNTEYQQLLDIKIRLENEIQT

T3: K231A-BR_(187–385) (S. pneumoniae TIGR4, UniProt A0A0H2URK1 186-384, K231A)
T3 construct: PsrP, S. pneumoniae TIGR4, residues 187-385, with K231A; also called control K231A-BR_(187–385); source: expressed from pET21d; purification of the mutants not detailed (SEC mentioned)
T3 sequence: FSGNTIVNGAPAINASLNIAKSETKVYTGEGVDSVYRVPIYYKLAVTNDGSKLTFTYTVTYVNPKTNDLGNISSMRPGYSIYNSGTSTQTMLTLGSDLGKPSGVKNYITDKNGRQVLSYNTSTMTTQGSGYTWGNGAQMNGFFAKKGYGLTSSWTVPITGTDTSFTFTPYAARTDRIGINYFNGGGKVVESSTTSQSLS

T4: N321A-BR_(187–385) (S. pneumoniae TIGR4, UniProt A0A0H2URK1 186-384, N321A)
T4 construct: PsrP, S. pneumoniae TIGR4, residues 187-385, with N321A; source: expressed from pET21d; purification of the mutants not detailed (SEC mentioned)
T4 sequence: T3 sequence with A45K, N135A

B1: Strep-Tag-II BR_(187–385) (KRT10-binding domain of the pneumococcal serine-rich repeat protein PsrP) (domain or fragment)
chain: T3 sequence with A45K
notes: also called STII-BR_(187–385); WT-BR_(187–385)
B2: KRT10 tail-rod-2B domain (KRT10-TRD) (domain or fragment)
chain: LKQSLEASLAETEGRYCVQLSQIQAQISALEEQLQQIRAETECQNTEYQQLLDIKIRLENEIQTYRSLLEGEGSSGGGGRGGGSFGGGYGGGSSGGGSSGGGHGGGHGGSSGGGYGGGSSGGGSSGGGYGGGSSSGGHGGSSSGGYGGGSSGGGGGGYGGGSSGGGSSSGGGYGGGSSSGGHKSSSSGSVGESSS
notes: Keratin-10 (KRT10), tail-rod-2B domain, residues 385-579, Uniprot ID P13645; source: expressed from pET21d, soluble, purified (IMAC, anion exchange)

Common to all, as to settings: both partners purified
Test [1] has as its target T1, full-length keratin-10 (KRT10-FL). Description: ELISA; KRT10 constructs coated on Nunc C96 plates (coating adjusted to KRT10-TRD at about 5 µg/ml), 2% BSA block; STII-BR_(187–385) 23 nM to 3 µM in PBS; detected with Strep-Tactin HRP; four-parameter logistic fit. In general terms: An ELISA detects its analyte on a solid surface through an enzyme-linked reagent.
For test [2], the target named is T2, KRT10 rod domain (KRT10-ROD). The description is as above.
Test [3] deals with B2. Described as above.
The target of another test is T3, K231A-BR_(187–385). Description: ELISA; KRT10-TRD coated; WT-BR_(187–385) and mutated variants at a single concentration of 1 µM; detected with Strep-Tactin HRP; normalised intensities.
The next test has as its target T4, N321A-BR_(187–385). The description is as above.

By EC50 is commonly meant the midpoint of the concentration-response curve.

Numbering of substitutions follows the chain as printed.

As to B1, the EC50 in test [1] is 345 nM; in test [2], roughly 1800 nM; in test [3], 345 nM.
B2: the binding result in the test with K231A-BR_(187–385) and in the test with N321A-BR_(187–385) was “binds” throughout.
